Measured values: US20240092918A1 (Novartis, published 2024)
Values belong to the binder of their own block, whether it stands above or below them.

Legend:
[1] = biological target: T1, recombinant CCR7 (Origene #TP306614) (human, UniProt P32248 25-378, limits assumed); assay: ELISA, plate coated with 3.5 ug/ml recombinant CCR7 (Origene #TP306614), antibody in serial dilution, detection anti-hFc gamma-HRP, absorbance at 650 nm
T1 construct: Bought protein coated on ELISA plates; also called recombinant hCCR7
T1 sequence (looked up): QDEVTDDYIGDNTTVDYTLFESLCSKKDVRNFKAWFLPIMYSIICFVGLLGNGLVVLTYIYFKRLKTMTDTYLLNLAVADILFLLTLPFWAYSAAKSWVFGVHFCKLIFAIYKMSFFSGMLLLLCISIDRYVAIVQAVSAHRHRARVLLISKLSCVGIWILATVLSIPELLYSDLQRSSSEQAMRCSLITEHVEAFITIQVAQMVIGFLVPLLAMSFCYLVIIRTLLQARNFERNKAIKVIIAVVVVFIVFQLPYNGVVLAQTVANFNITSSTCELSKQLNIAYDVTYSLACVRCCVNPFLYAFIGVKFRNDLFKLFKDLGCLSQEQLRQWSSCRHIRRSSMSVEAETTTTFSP
Experimental: Binding and affinity was also assessed in an ELISA-based assay using recombinant CCR7 (Origene #TP306614). Maxisorp™ 384-well plates (Thermo Nunc) were coated with 3.5 μg/ml of recombinant CCR7 diluted in PBS. After blocking with 3% BSA (bovine serum albumin) in PBS for 1 hr at room temperature, washing plates 3× with PBS-T (0.01% Tween 20 in PBS), primary antibodies were added in a serial dilution and incubated for 1 hr at room temperature.

Human CCR7 [2] = biological target: T2, Human CCR7 (human, UniProt P32248 25-378); assay: cell-based or functional assay
T2 sequence: T1 sequence (looked up)

Rat CCR7 = biological target: T3, Rat CCR7 (rat, UniProt P47774 25-378 (mouse entry)); assay: FACS, NIH3T3 cell series and CD4+ T cells
T3 construct: On NIH3T3 cells or CD4+ T cells of Wistar rats; also called NIH3T3.rat CCR7
T3 chain: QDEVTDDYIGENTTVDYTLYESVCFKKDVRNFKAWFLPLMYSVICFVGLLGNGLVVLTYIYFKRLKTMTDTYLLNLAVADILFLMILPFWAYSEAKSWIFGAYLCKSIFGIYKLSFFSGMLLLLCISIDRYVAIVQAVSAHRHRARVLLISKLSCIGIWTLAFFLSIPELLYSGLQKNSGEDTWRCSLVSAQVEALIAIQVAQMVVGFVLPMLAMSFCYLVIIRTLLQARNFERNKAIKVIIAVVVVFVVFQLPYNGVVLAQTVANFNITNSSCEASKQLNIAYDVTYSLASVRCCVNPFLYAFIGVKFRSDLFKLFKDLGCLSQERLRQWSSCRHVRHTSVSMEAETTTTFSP
Experimental: (§1) For this purpose, CCR7 positive cells were harvested (adherent cells were detached with Accutase), washed twice with FACS buffer (PBS/3% FCS/0.02% sodium azide) and diluted to approximately 2×10⁶ cells/ml in FACS buffer. All subsequent steps were done on ice to prevent internalization of the receptor. 100 μl cell suspension/well were transferred into 96-well U-bottom plates (Falcon). 2×10⁵ cells/well were incubated with a serial dilution of antibody concentrations of the anti-CCR7 antibody-of-interest ranging across several logs, starting at a high of 100 nM for 60 minutes at 4° C., gently shaking. Following incubation, cells were spun down (1200 rpm, 2 min, 4° C.) and washed three times with FACS buffer. A fluorophore-conjugated anti-hFc gamma-APC (Jackson ImmunoResearch) detection antibody was added at 1:400 and samples were incubated for 1 h on ice in the dark, gently shaken. After a final wash, cells were resuspended in 100 μl of FACS buffer containing 0.2 μg/ml DAPI followed by readout on the flow cytometry machine (BD LSRFortessa Cell Analyzer; Cat #647177). Mean fluorescence intensity (MFI) of live, single cells was calculated in Flowjo 10.0.8 and exported into Graphpad Prism6 for EC50 determination.

Mouse CCR7 = biological target: T4, Mouse CCR7 (mouse, UniProt P47774 25-378); assay: FACS, NIH3T3 cell series and CD4+ T cells
T4 construct: On NIH3T3 cells or CD4+ T cells of CD-1 mice; also called NIH3T3.mouse CCR7
T4 sequence: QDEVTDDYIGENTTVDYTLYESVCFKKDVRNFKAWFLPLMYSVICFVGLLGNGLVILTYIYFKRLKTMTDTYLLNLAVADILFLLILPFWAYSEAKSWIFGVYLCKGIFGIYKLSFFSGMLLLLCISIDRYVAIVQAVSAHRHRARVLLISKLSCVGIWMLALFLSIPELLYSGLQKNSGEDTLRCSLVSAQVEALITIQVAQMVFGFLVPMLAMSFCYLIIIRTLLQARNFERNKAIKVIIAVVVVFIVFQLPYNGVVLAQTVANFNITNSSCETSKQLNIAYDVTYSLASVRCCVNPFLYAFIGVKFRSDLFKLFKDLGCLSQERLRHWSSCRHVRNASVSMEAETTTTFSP
Experimental: as §1

Human CCR7 [3] = biological target: T2, Human CCR7; assay: FACS competition on DEL cells (CCR7+), antibody titrated up to 100 nM applied together with the competitor CCL19 kept at 1 uM (panel 'ligand 1uM'), detection anti-hFc.PE, MFI [panel ligand 1uM]

EC50 (read off the curve) [1]: ~0.7 nM
pHrodo (6 h MFI), uptake of pHrodo-labelled antibody at 5 ug/ml, CD4+ T cells (2000 receptors) (Human CCR7 [2]): 278 MFI
pHrodo (6 h MFI), uptake of pHrodo-labelled antibody at 5 ug/ml, CMLT1 cells (19583 receptors) (Human CCR7 [2]): 301 MFI
pHrodo (6 h MFI), uptake of pHrodo-labelled antibody at 5 ug/ml, DEL cells (110685 receptors) (Human CCR7 [2]): 1910 MFI
pHrodo (6 h MFI), uptake of pHrodo-labelled antibody at 5 ug/ml, JVM3 cells (8717 receptors) (Human CCR7 [2]): 148 MFI
pHrodo (6 h MFI), uptake of pHrodo-labelled antibody at 5 ug/ml, Jeko-1 cells (28852 receptors) (Human CCR7 [2]): 450 MFI
pHrodo (6 h MFI), uptake of pHrodo-labelled antibody at 5 ug/ml, KE97 cells (152093 receptors) (Human CCR7 [2]): 1570 MFI
pHrodo (6 h MFI), uptake of pHrodo-labelled antibody at 5 ug/ml, L540 cells (167549 receptors) (Human CCR7 [2]): 6840 MFI
pHrodo (6 h MFI), uptake of pHrodo-labelled antibody at 5 ug/ml, L1236 cells (61602 receptors) (Human CCR7 [2]): 1240 MFI
pHrodo (6 h MFI), uptake of pHrodo-labelled antibody at 5 ug/ml, MJ cells (111121 receptors) (Human CCR7 [2]): 1650 MFI
pHrodo (6 h MFI), uptake of pHrodo-labelled antibody at 5 ug/ml, MOTN1 cells (84200 receptors) (Human CCR7 [2]): 1030 MFI
pHrodo (6 h MFI), uptake of pHrodo-labelled antibody at 5 ug/ml, Mec2 cells (50840 receptors) (Human CCR7 [2]): 1340 MFI
B1: 121G12 (Humanized CysMab, DAPA) (antibody, human IgG1, kappa)
heavy: EVQLVESGGGLVKPGGSLRLSCAASGFTFSTYAMSWVRQAPGKGLEWVATISDAGSYSYYPDNVKGRFTISRDNAKNSLYLQMNSLRAEDTAVYYCARRGSRYEEYYVMDYWGQGTTVTVSSASTKGPSVFPLAPSSKSTSGGTAALGCLVKDYFPCPVTVSWNSGALTSGVHTFPAVLQSSGLYSLSSVVTVPSSSLGTQTYICNVNHKPSNTKVDKRVEPKSCDKTHTCPPCPAPELLGGPSVFLFPPKPKDTLMISRTPEVTCVVVAVSHEDPEVKFNWYVDGVEVHNAKTKPREEQYNSTYRVVSVLTVLHQDWLNGKEYKCKVSNKALAAPIEKTISKAKGQPREPQVYTLPPSREEMTKNQVSLTCLVKGFYPCDIAVEWESNGQPENNYKTTPPVLDSDGSFFLYSKLTVDKSRWQQGNVFSCSVMHEALHNHYTQKSLSLSPGK
light: EIVLTQSPATLSVSPGERVTLSCRASQSISNNLHWYQQKPGQAPRLLIKYASQSISGIPARFSGSGSGTDFTLTISSVEPEDFGVYFCQQSSSWLTFGQGTKLEIKRTVAAPSVFIFPPSDEQLKSGTASVVCLLNNFYPREAKVQWKVDNALQSGNSQESVTEQDSKDSTYSLSSTLTLSKADYEKHKVYACEVTHQGLSSPVTKSFNRGEC
notes: Human IgG1 kappa, E152C/S375C, D265A/P329A; In the pHrodo assay it carried maleimide-pHrodo (DAR 4); also called 121G12.CysMab.DAPA; 121G12.DAPA

binding result (Rat CCR7): no binding
binding result (Mouse CCR7): no binding
B2: 121G12 humanized CysMab (Fc Wild Type) (antibody, human IgG1, V domains shown)
VH: EVQLVESGGGLVKPGGSLRLSCAASGFTFSTYAMSWVRQAPGKGLEWVATISDAGSYSYYPDNVKGRFTISRDNAKNSLYLQMNSLRAEDTAVYYCARRGSRYEEYYVMDYWGQGTTVTVSS
VL: EIVLTQSPATLSVSPGERVTLSCRASQSISNNLHWYQQKPGQAPRLLIKYASQSISGIPARFSGSGSGTDFTLTISSVEPEDFGVYFCQQSSSWLTFGQGTKLEIK
notes: Human IgG1 kappa with E152C/S375C (CysMab) and wild type Fc

EC50 (read off the curve) (Human CCR7 [3]): 2 to 3 nM
pHrodo (6 h MFI), uptake of pHrodo-labelled antibody at 5 ug/ml, CD4+ T cells (2000 receptors) (Human CCR7 [2]): 402 MFI
pHrodo (6 h MFI), uptake of pHrodo-labelled antibody at 5 ug/ml, CMLT1 cells (19583 receptors) (Human CCR7 [2]): 561 MFI
pHrodo (6 h MFI), uptake of pHrodo-labelled antibody at 5 ug/ml, DEL cells (110685 receptors) (Human CCR7 [2]): 3780 MFI
pHrodo (6 h MFI), uptake of pHrodo-labelled antibody at 5 ug/ml, JVM3 cells (8717 receptors) (Human CCR7 [2]): 146 MFI
pHrodo (6 h MFI), uptake of pHrodo-labelled antibody at 5 ug/ml, Jeko-1 cells (28852 receptors) (Human CCR7 [2]): 1390 MFI
pHrodo (6 h MFI), uptake of pHrodo-labelled antibody at 5 ug/ml, KE97 cells (152093 receptors) (Human CCR7 [2]): 4420 MFI
pHrodo (6 h MFI), uptake of pHrodo-labelled antibody at 5 ug/ml, L540 cells (167549 receptors) (Human CCR7 [2]): 11800 MFI
pHrodo (6 h MFI), uptake of pHrodo-labelled antibody at 5 ug/ml, L1236 cells (61602 receptors) (Human CCR7 [2]): 5820 MFI
pHrodo (6 h MFI), uptake of pHrodo-labelled antibody at 5 ug/ml, MJ cells (111121 receptors) (Human CCR7 [2]): 3260 MFI
pHrodo (6 h MFI), uptake of pHrodo-labelled antibody at 5 ug/ml, MOTN1 cells (84200 receptors) (Human CCR7 [2]): 2540 MFI
pHrodo (6 h MFI), uptake of pHrodo-labelled antibody at 5 ug/ml, Mec2 cells (50840 receptors) (Human CCR7 [2]): 3000 MFI
B3: 674J13 (Humanized, CysMab DAPA) (antibody, human IgG1, kappa, V domains shown)
VH: DVQLQESGPGLVKPSQTLSLTCTVSGYSITSGYSWHWIRQHPGKGLEWMAHIHSSGSTNYNPSLKSRITISRDTSKNQFSLKLSSVTAADTAVYYCARGGVQAFAYWGQGTLVTVSS
VL: EIVLTQSPATLSASPGERVTMSCSASSSVIYMHWYQQKPGQAPRRWIYDTSKLASGVPARFSGSGSGTDYTLTISSMEPEDAAVYYCQQWSSNPLTFGQGTKLEIKR
notes: Human IgG1 kappa, E152C/S375C, D265A/P329A; In the pHrodo assay it carried maleimide-pHrodo (DAR 4); also called 674J13.CysMab.DAPA; 674J13.DAPA
